B1: IRX6 (parent)
chain: YPCLEKPRIWSLAHTATASAVEGA
B2: ZNF8 (parent)
chain: KPYTCSVCGKSFSRTTCLFLHLRT

Variants of: B1
Experiment: protein stability index of a GFP-peptide fusion (GPS, HEK-293T) (PSI 1-6); higher = more stable
Conditions: c terminus: a fixed tail appended
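Also: lentivirally expressed fusions sorted by FACS into six bins by GFP to DsRed ratio, PSI derived from sequencing read proportions per bin multiplied by bin number.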

Protein stability index, by site and new letter:
C3: G 2.91 | F 3.06 | N 1.37 | K 3.76 | Y 1.54 | R 2.76 | A 1.96 | Q 2.14 | L 1.86 | W 1.68 | V 1.66 | H 2.16 | E 1.85 | P 2.12 | M 2.28 | D 1.58 | S 2.46 | I 1.74 | T 2.85
K6: V 2.61 | L 1.2 | F 2.54 | S 3.68 | G 2.34 | N 1.48 | H 1.79 | R 1.88 | M 2.41 | P 2.1 | I 1.59 | W 2.69
P2: K 2.82 | G 3.7 | S 1.7 | T 3.4 | M 3.06 | W 3.12 | D 2.28 | A 2.82 | F 2.41 | N 4.81 | Q 2.98 | Y 2.69 | H 2.9 | I 2.96 | E 2.29 | V 2.51 | R 2.37 | L 1.88
L4: I 2.46 | T 3.03 | E 2.64 | P 2.5 | F 2.58 | V 2.07 | K 2.37 | Y 2.53 | A 4.55 | W 2.68 | S 1.81 | M 4.4 | Q 1.49
E5: H 2.37 | R 3.21 | A 1.95 | K 2.92 | C 3.7 | D 2.81 | N 2.34 | P 2.63 | W 1.9 | Y 2.68 | T 3.97 | L 3.24 | G 3.15 | F 3.7 | S 2.98 | V 4.3 | Q 3.22
Y1: P 4.08 | A 4.1 | K 3.73 | C 2.82 | W 2.82 | N 3.84 | S 3.81 | F 1.86 | D 3.84 | E 4.33 | G 3.53 | R 3.33 | V 3.89 | I 2.88 | Q 3.79 | M 3.83 | L 3.59 | T 3.36 | H 2.54
P7: G 2.84 | K 3.5 | A 3.29 | H 2.44 | D 4.03 | E 2.27 | C 2.69

Variants of: B2
Experiment: as above
Conditions: c terminus: a fixed tail appended

Protein stability index, by site and new letter:
F12: Y 2.15 | W 1.72 | V 1.73
F19: P 2.45 | W 1.57 | N 2.36 | L 1.73 | T 1.78 | M 2.35 | Q 2.54 | S 2.03 | A 1.98 | D 2.79 | I 1.91 | H 2.26 | C 3.11 | G 1.93 | E 2.57 | V 1.9 | R 2.35 | Y 2.44 | K 1.93
T16: Y 2.03 | E 2.25 | W 2.19 | I 2.44 | L 1.79 | S 2.17 | A 2.16 | H 2.36 | F 1.39 | Q 2.73 | K 1.56 | N 2.73 | G 2.6 | C 1.94 | M 1.98 | R 1.82 | P 2.67 | D 2.27 | V 1.68
T15: E 2.64 | F 2.9 | Y 2.31 | M 2.73 | D 2.9 | S 2.4 | W 2.1 | C 2.49 | I 2.62 | V 2.44 | A 2.45 | Q 2.61 | N 2.02 | L 2.29 | G 1.54 | H 1.83 | R 2.58 | P 2.47 | K 2.39
L20: E 3.07 | D 2.11 | F 2.14 | I 1.99 | W 1.39 | S 2.17 | C 2.63 | P 2.27 | N 2.56 | T 2.65 | Y 1.94 | H 2.79 | R 2.42 | M 1.74 | K 2.32 | A 2.66 | Q 2.96 | G 2.1
L22: E 2.31 | C 2.24 | W 1.74 | S 2.11 | F 1.82 | Y 1.8 | P 2.78 | R 2.34 | M 3.01 | A 2.08 | I 1.96 | K 2.74 | H 1.81 | V 1.85 | N 2.57 | G 2.03 | D 2.04 | T 2.1
R23: C 2.06 | N 1.75 | P 2.5 | H 2.32 | L 1.65 | I 2.05 | D 1.91 | Y 1.84 | Q 2.59 | S 1.83 | E 2.26 | G 1.9 | A 2.29 | F 1.64 | V 2 | W 1.75 | T 1.95 | K 2.06 | M 2.23
L18: Y 2.43 | A 2.19 | I 2.49 | M 2.33 | R 1.67 | W 2.18 | P 2.32 | S 1.89 | N 2.49 | Q 2.11 | V 2.27 | F 1.95 | T 2.27 | E 2.45 | D 2.2 | K 2.9 | C 2.31 | G 2.44 | H 1.96
R14: A 2.39 | D 3.85 | G 1.89 | Y 1.93 | I 2.66 | H 2.3 | W 1.66 | P 2.45 | L 1.65 | V 3.3 | S 3.13 | M 1.68 | Q 3.25 | F 1.6 | K 2.12 | T 3.19 | C 3.41 | E 2.7 | N 3.12
C17: D 3.67 | Q 2.58 | V 1.85 | N 1.96 | I 2.14 | A 2.19 | L 2.39 | K 2.35 | T 2.42 | R 2.35 | P 1.91 | G 2.22 | W 1.5 | E 3.61 | Y 2.15 | M 2.13 | H 2.04 | S 1.84 | F 1.92
S13: C 2.71 | K 2.06 | R 2 | Q 2.38 | L 1.48 | M 1.88 | F 1.82 | Y 1.75 | D 1.94 | I 1.67 | N 1.76 | H 1.63 | W 1.87 | V 2.15 | P 2.16 | T 1.86 | A 2.43 | G 1.62 | E 2.57
H21: C 2.37 | Y 1.57 | E 2.31 | W 1.75 | L 2.39 | M 2.16 | N 1.6 | V 1.8 | A 2.18 | R 1.4 | D 1.35 | I 1.59 | S 2.04 | Q 2.28 | F 1.65 | K 2.04 | T 1.56 | G 1.94 | P 2.01
T24: D 2.12 | E 1.67 | I 1.52 | C 2.07 | R 2.04 | Y 1.68 | K 2.29 | H 2.96 | P 2.19 | N 2.35 | S 1.89 | G 2.37 | F 2.02 | W 2.5 | A 1.96 | V 2.2 | Q 1.9 | M 2.44 | L 1.58
